According to US20190322762A1 (DEVELOPMENT CENTER FOR BIOTECHNOLOGY, published 2019):
Where a chain is given by its changes, count along the chain named. One block for each binder: values may come before it.

Experiments:
BSA = biological target: T1, BSA (Bos taurus, UniProt P02769); assay: ELISA, BSA as background
T1 construct: The sheet prints only 'BSA'; also called bovine serum albumin; BSA background

human ENO1 protein [1] = biological target: T2, human ENO1 protein (human, UniProt P06733 1-434); assay: ELISA, 400 ng/100 µL human ENO1 coated, antibody in 15 two-fold dilutions, four parameter logistic fit
T2 construct: Purified human ENO1 protein coated on ELISA plates or injected as SPR analyte; also called alpha-enolase; enolase-1
Description: (§1) To determine the binding activity of each mutant antibody, 400 ng/100 μL of human ENO1 protein was coated on a 96-well ELISA overnight at 4° C. and the plate further was washed by PBS. The plate was blocked with 1% BSA (w/v) in PBS at room temperature for 1 hour, then washed again with 1×PBS. EN10.4, EN10.5, and humEN10 mAb antibodies were 2-fold serial diluted to 15 different concentrations and added to the plate at 37° C. for 1 hour. After the reaction was complete, the plate was washed 3 times with 1×PBS. A 1/8000 dilution of goat anti-human-HRP antibody was added and incubated at 37° C. for 1 hour, and then the plate washed 3 times with 1×PBS. The TMB substrate was added and reacted at room temperature for 30 minutes. The reaction was stopped by adding 1N HCl, and OD 450 was read to determine the activity. Every study was repeated three times. Data are presented as mean±SD. OD readings and concentrations of antibody were used to make a multiple scatter figure by Sigmaplot. The KD values were predicted by four parameter logistic fit.
(§2) There is no significant affinity difference among three different editions of hum EN10 mAb antibodies. […] Due to the structure similarity between cysteine and serine, EN10.5 is chosen to generate antibody production cell lines.

human ENO1 protein [2] = biological target: T2, human ENO1 protein; assay: SPR, BIAcore 2000, antibody on the chip, ENO1 0.3125 nM to 40 nM as analyte, 25 degree C
Text: (§3) To know the binding kinetics difference among individual antibodies, surface plasmon resonance (SPR) measurement with a BIAcore 2000 (BIAcore. Inc., Piscataway, N.J.) was used as previously described (Karlsson & Falt, (1997) J. Immunol Methods 200:121-133). Carboxymethylated dextran biosensor chips (CM5, BIAcore Inc.) were activated with N-ethyl-N′-(3-dimethylaminopropyl)-carbodiimide hydrochloride (EDC) and N-hydroxysu-ccinimide (NHS) according to the supplier's instructions. Chimera EN10 mAb was diluted with 10 mM sodium acetate, pH 4.8, into 5 microgram/ml before injection at a flow rate of 20 micro L/minute to achieve approximately 100 response units (RU) of coupled protein followed by the injection of 1M ethanolamine to block unreacted groups. For kinetics measurements, two-fold serial dilutions of ENO1 (0.3125 nM to 40 nM) were injected in HBS-P Biacore running buffer provided by the manufacturer (BIAcore, Inc., Piscataway, N.J.) at 25 degree C. at a flow rate of 25 microL/min. and binding responses on the EN10 mAb were corrected by subtraction of responses on a blank flow cell. Association rates (kon or ka) and dissociation rates (koff or kd) were calculated using a simple one-to-one Langmuir binding model with separate fittings of kon and koff was used. (BIAcore™ Evaluation Software version 3.2).

human ENO1 protein [3] = biological target: T2, human ENO1 protein; assay: ELISA, human ENO1 coated on the plate; upper plateau of the four parameter logistic fit
Description: as §1, §2

human ENO1 protein [4] = biological target: T2, human ENO1 protein; assay: ENO1 binding ELISA
human ENO1 protein [5] = biological target: T2, human ENO1 protein; assay: told with the SPR results of FIG. 7B
Text: as §3

[6] = biological target: T3, ENO1 mutant Q298 to alanine (human, UniProt P06733 1-434); assay: ELISA, ENO1 mutant A298 coated, EN10.5 mAb titrated, four parameter logistic fit
T3 construct: Expressed in E. coli and purified on Ni-agarose
Description: (§4) To determine the binding activity of each mutant protein, 400 ng/100 μL of human ENO1 protein or mutated ENO1 protein was coated on a 96-well ELISA plate and incubated overnight at 4° C. and the plate was washed with PBS. The plate was blocked with 1% BSA (w/v) in PBS at room temperature for 1 hour, then washed again with 1×PBS. A primary antibody (EN10.5 mAb) was 2-fold serial diluted to 15 different concentrations and added to the plate at 37° C. for 1 hour. After the reaction was done, the plate was washed 3 times with 1×PBS. A 1/8000 dilution of goat anti-mouse-HRP antibody was added and incubated at 37° C. for 1 hour, then the plate was washed 3 times with 1×PBS. Then, TMB substrate was added and the reaction was allowed to proceed at room temperature for 30 minutes. The reaction was stopped by adding 1N HCl and OD450 was read to determine the activity. Each study was repeated three times. Data are presented as mean±SD. OD readings and concentrations of antibody were used to make a multiple scatter plot using Sigmaplot™. The KD values were predicted by four parameter logistic fit.
(§5) Thus, the crystal structure of ENO1 was downloaded from protein data bank (pdb-entry: 2PSN) to analyze residue positions from this region. […] Every purified ENO1 mutant protein was analyzed for any KD changes by ENO1 binding in ELISA. […]

[7] = biological target: T4, ENO1 mutant S310 to alanine (human, UniProt P06733 1-434); assay: ELISA, ENO1 mutant A310 coated, EN10.5 mAb titrated, four parameter logistic fit
T4 construct: Expressed in E. coli and purified on Ni-agarose
Description: as §4, §5

[8] = biological target: T5, ENO1 mutant D299 to alanine (human, UniProt P06733 1-434); assay: ELISA, ENO1 mutant A299 coated, EN10.5 mAb titrated, four parameter logistic fit
T5 construct: Expressed in E. coli and purified on Ni-agarose
Description: as §4, §5

[9] = biological target: T6, ENO1 mutant R327 to alanine (human, UniProt P06733 1-434); assay: ELISA, ENO1 mutant A327 coated, EN10.5 mAb titrated
T6 construct: Expressed in E. coli and purified on Ni-agarose
Description: as §4, §5

[10] = biological target: T7, ENO1 mutant G312 to alanine (human, UniProt P06733 1-434); assay: ELISA, ENO1 mutant A312 coated, EN10.5 mAb titrated, four parameter logistic fit
T7 construct: Expressed in E. coli and purified on Ni-agarose
Description: as §4, §5

A333 = biological target: T8, A333 (human); assay: ELISA, ENO1 mutant A333 coated, EN10.5 mAb titrated, four parameter logistic fit
T8 construct: Sixth mutant of the alanine scan; It is named only on the sheets; the text lists five mutants
Description: as §4, §5

T2 sequence (P06733 whole entry): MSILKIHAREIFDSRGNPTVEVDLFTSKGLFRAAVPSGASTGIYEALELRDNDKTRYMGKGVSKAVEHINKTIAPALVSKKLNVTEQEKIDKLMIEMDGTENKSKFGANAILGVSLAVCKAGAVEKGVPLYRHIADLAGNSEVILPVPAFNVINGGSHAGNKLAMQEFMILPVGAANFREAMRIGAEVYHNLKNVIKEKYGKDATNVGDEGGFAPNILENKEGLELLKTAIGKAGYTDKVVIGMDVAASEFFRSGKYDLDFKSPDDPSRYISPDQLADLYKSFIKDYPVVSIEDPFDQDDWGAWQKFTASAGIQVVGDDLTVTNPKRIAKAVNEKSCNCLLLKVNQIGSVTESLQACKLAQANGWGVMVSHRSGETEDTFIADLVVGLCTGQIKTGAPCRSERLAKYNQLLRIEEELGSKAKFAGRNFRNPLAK
T1 sequence (P02769 25-607 limits assumed): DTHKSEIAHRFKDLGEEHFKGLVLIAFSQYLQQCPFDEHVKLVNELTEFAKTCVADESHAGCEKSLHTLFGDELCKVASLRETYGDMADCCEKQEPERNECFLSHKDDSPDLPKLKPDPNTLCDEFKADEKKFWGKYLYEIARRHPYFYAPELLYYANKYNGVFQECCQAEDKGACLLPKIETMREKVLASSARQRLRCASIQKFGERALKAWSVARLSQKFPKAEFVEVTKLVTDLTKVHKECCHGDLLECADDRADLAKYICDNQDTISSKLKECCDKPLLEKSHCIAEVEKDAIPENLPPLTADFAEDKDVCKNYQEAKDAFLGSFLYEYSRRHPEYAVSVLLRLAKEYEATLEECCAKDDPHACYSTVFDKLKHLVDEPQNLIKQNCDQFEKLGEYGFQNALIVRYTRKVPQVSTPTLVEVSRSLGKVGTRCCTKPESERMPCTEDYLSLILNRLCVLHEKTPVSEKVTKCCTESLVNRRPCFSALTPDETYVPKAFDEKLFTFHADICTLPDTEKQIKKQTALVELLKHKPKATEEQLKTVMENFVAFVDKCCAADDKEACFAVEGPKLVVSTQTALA
T5 sequence (P06733 other isoform, or with tags, fused parts or gaps mutant limits assumed): as the sequence (P06733 whole entry) above, with D299A counted along it
T4 sequence (P06733 other isoform, or with tags, fused parts or gaps mutant limits assumed): as the sequence (P06733 whole entry) above, with S310A counted along it
T7 sequence (P06733 other isoform, or with tags, fused parts or gaps mutant limits assumed): as the sequence (P06733 whole entry) above, with G312A counted along it
T3 sequence (P06733 other isoform, or with tags, fused parts or gaps mutant limits assumed): as the sequence (P06733 whole entry) above, with Q298A counted along it
T6 sequence (P06733 other isoform, or with tags, fused parts or gaps mutant limits assumed): as the sequence (P06733 whole entry) above, with R327A counted along it

B1: EN10 mAb (antibody, V domains shown)
VH: EVQLQQSGPELVKPGASVKMSCKASGYTFTSCVMNWVKQKPGQGLEWIGYINPYNDGTKYNEKFKGKATLTSDKSSSTAYMELSSLTSEDSAVYYCAREGFYYGNFDNWGQGTTLTVSS
VL: DIQMTQSPASLSASVGETVTITCRASENIYSYLTWYQQKQGKSPQLLVYNAKTLPEGVPSRFSGSGSGTQFSLKINSLQPEDFGSYYCQHHYGTPYTFGGGTKLEITR
notes: Mouse monoclonal antibody purified from hybridoma ascites; also called anti-human ENO1 antibody EN10 mAb; EN10 mAb antibody
binding result (BSA): no binding

B2: hum EN10 mAb IMGT (antibody, V domains shown)
VH: QVQLVQSGAEVKKPGASVKVSCKASGYTFTSCVMNWVRQAPGQGLEWMGYINPYNDGTKYNEKFKGRVTMTTDTSTSTAYMELRSLRSDDTAVYYCAREGFYYGNFDNWGQGTLVTVSS
VL: DIQMTQSPSSLSASVGDRVTITCRASENIYSYLTWYQQKPGKAPKLLIYNAKTLPEGVPSRFSGSGSGTDFTLTISSLQPEDFATYYCQHHYGTPYTFGQGTKLEIKR
notes: Humanized antibody, human IgG; also called Hum EN10 IMGT; hum ENO10mAb IMGT
Kd (human ENO1 protein [1]): 0.163 nM
Kd (human ENO1 protein [2]): 0.219 nM
Max. (human ENO1 protein [3]): 2.99 O.D 450 nm
Kd (human ENO1 protein [4]): 0.0365 nM
Kd (human ENO1 protein [5]): ~0.203 nM

B5: EN10.4 (antibody, V domains shown)
VH: B2 VH with C32A
VL: B2 VL
notes: same light chain as humEN10 mAb; human IgG from FreeStyle293 cells; also called EN10.4 mAb; alanine mutant of humEN10 mAb antibody
Kd (human ENO1 protein [1]): 0.14 nM
Max. (human ENO1 protein [3]): 2.94 O.D 450 nm

Further lines, results first:

Kd (human ENO1 protein [2]): 0.5 nM
B3: hum EN10 mAb 4D5 (antibody, V domains shown)
VH: EVQLVESGGGLVQPGGSLRLSCAASGYTFTSCVMNWVRQAPGKGLEWVAYINPYNDGTKYNEKFKGRFTISRDDSKNTLYLQMNSLRAEDTAVYYCAREGFYYGNFDNWGQGTLVTVSS
VL: B2 VL
notes: Humanized antibody, human IgG; also called hum ENO10mAb 4D5; hum EN10 mAb 45D

Kd [6]: 0.238 nM
Kd [7]: 0.217 nM
Kd (human ENO1 protein [1]): 0.157 nM
Kd [8]: 64.3 nM
binding result [9]: no binding (tested: about 1e-7 M)
Max. (human ENO1 protein [3]): 2.97 O.D 450 nm
Kd [10]: 0.2 nM
Kd (A333): 0.21 nM
B4: EN10.5 (antibody, V domains shown)
VH: B2 VH with C32S
VL: B2 VL
notes: same light chain as humEN10 mAb; human IgG; also called EN10.5 mAb; mAb EN10.5
